The target of test [1] is Hcp from Acinetobacter baumannii AB0057, C-terminal His-tagged (Acinetobacter baumannii strain AB0057). Nature of the test: crystal structure; X-ray, 1.55 Å, space group P6; crystals from 2.0 M ammonium sulfate, 0.1 M Hepes pH 7.5, 4°C; hexamer made by the 6-fold crystallographic symmetry; interfaces analysed with PISA.
The target in test [2] is Hcp from Acinetobacter baumannii AB0057, tag-free (Acinetobacter baumannii strain AB0057). Nature of the test: AUC; sedimentation equilibrium, 20°C, Hcp at 1.0 and 2.5 mg/ml, 20 mM Tris-HCl pH 7.5, 200 mM NaCl, 0.2 mM DTT, 2% glycerol.
Test [3] shares this target. Briefly: negative-staining electron microscopy; Hcp at 0.02 mg/ml in 20 mM Tris-HCl pH 7.5, 200 mM NaCl, 2 mM DTT, stained with 1% uranyl formate; reference-free 2D classification.

“Hcp from Acinetobacter baumannii AB0057, C-terminal His-tagged (natural protein)” returned a stoichiometry N in test [1] of 6.

Consider “Hcp from Acinetobacter baumannii AB0057, tag-free (natural protein)”, for which the stoichiometry N in test [2] and in test [3] was 6 in each case.
